{"source": "patent US20240209341A1", "about": "(University of California, published 2024)", "binders": {"B1": {"name": "His-tagged zebrafish (zf) AIBP lacking the signal peptide (other, UniProt Q6DHK1 29-283, looked up)", "chain": "SSAASNIYSKHLTHRPTCTMANTGVKYLGQEEAQQIDEELFSDFSFSVDQLMELAGLSCATAVAKGYPVTSLLKSPARVLVICGPGNNGGDGLVCARHLKLFGYEPSVLYPKRPNKQLFQNLSIQCQKMEIPFLTEMPEADLIDEAYSLVVDAIFGFSFKGAVREPFGEILSQLKKITVPIASVDIPSGWDVEKGCPDGIQPDMLISLTAPKKSAALFKGRFHFLGGRFVPPVLEQKYQLNLPQYPGTECVFQLN", "notes": "mature; also called zebrafish wild type AIBP; not shown: N-terminal His-tag of the pAcHLT-C vector"}, "B2": {"name": "cleaved His-d24 AIBP (other)", "chain": "GSPGLDGICSRQTIACRSGPTWWGPQRLNSGGRWDSEVMASTVVKYLSQEEAQAVDQELFNEYQFSVDQLMELAGLSCATAIAKAYPPTSMSRSPPTVLVICGPGNNGGDGLVCARHLKLFGYEPTIYYPKRPNKPLFTALVTQCQKMDIPFLGEMPAEPMTIDELYELVVDAIFGFSFKGDVREPFHSILSVLKGLTVPIASIDIPSGWDVEKGNAGGIQPDLLISLTAPKKSATQFTGRYHYLGGRFVPPALEKKYQLNLPPYPDTECVYRLQ", "notes": "also called putative cleavage product of His-d24 AIBP"}, "B3": {"name": "His-tagged deletion mutant (mut, 52-288 aa) human AIBP (other)", "chain": "MASTVVKYLSQEEAQAVDQELFNEYQFSVDQLMELAGLSCATAIAKAYPPTSMSRSPPTVLVICGPGNNGGDGLVCARHLKLFGYEPTIYYPKRPNKPLFTALVTQCQKMDIPFLGEMPAEPMTIDELYELVVDAIFGFSFKGDVREPFHSILSVLKGLTVPIASIDIPSGWDVEKGNAGGIQPDLLISLTAPKKSATQFTGRYHYLGGRFVPPALEKKYQLNLPPYPDTECVYRLQ", "notes": "Baculovirus/insect cell expression, pAcHLT-C vector; also called mutAIBP; mut AIBP; not shown: N-terminal His-tag of the pAcHLT-C vector"}, "B4": {"name": "d51 AIBP-his (expressed in E. coli) (other)", "chain": "B3 chain", "notes": "not shown: his tag, read from the name as C-terminal"}}, "key": {"[1]": {"target": "T1, recombinant TLR4 ectodomain, His-tagged (Sino Biological) (human, UniProt O00206 24-631)", "T1 construct": "extracellular domain; Bought protein; also called eTLR4; eTLR4-His; not shown: His-tag", "T1 sequence (O00206 24-631)": "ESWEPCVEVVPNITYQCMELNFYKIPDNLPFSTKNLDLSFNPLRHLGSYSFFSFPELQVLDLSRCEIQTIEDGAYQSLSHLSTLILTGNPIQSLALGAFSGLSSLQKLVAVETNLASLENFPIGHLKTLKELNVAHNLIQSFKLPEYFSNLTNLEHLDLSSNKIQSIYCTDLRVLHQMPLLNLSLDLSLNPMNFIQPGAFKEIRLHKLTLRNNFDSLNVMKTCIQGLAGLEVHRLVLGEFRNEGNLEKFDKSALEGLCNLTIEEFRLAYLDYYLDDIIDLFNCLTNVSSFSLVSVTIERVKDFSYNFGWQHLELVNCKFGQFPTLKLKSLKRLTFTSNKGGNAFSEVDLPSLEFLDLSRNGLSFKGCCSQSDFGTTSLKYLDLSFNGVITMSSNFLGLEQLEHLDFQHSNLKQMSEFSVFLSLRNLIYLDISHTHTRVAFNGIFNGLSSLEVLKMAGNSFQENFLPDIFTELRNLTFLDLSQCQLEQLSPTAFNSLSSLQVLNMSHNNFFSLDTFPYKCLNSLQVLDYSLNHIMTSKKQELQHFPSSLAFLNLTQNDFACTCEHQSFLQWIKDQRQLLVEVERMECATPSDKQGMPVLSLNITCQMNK", "test": "test-tube co-IP with anti-TLR4 antibody, immunoblot with anti-His antibody", "description": "FIG. 9: Identifies sequence motifs that contribute to AIBP binding to TLR4: FIG. 9. Identification of the domain in the AIBP molecule responsible for TLR4 binding. A, Human AIBP: signal peptide (aa 1-24), previously uncharacterized N-terminal domain (aa 25-51), and YjeF_N domain (aa 52-288). B, Flag-tagged deletion mutants of human AIBP were co-expressed in HEK293 cells with the Flag-tagged TLR4 ectodomain (eTLR4). Cell lysates were immunoprecipitated (IP) with an anti-TLR4 antibody and immunoblotted (IB) with an anti-Flag antibody. C, His-tagged human (hu), mouse (mo) and zebrafish (zf) AIBP, all lacking the signal peptide, expressed in a baculovirus/insect cell system, were combined in a test-tube with eTLR4-His, followed by IP with an anti-TLR4 antibody and IB with an anti-His antibody. D-H, Binding of His-tagged wild type (wt, 25-288 aa) and the deletion mutant (mut, 52-288 aa) human AIBP to eTLR4, APOA1 and microglia. IP of eTLR4 and wtAIBP or mutAIBP in a test tube with an anti-AIBP antibody; blot and quantification from 3 independent experiments (D). ELISA with plates coated with eTLR4 and incubated with wtAIBP or mutAIBP (n=3) (E). ELISA with plates coated with BSA, wtAIBP or mutAIBP and incubated with APOA1 (F). […]"}, "[2]": {"target": "T1, recombinant TLR4 ectodomain, His-tagged …", "test": "pull-down with anti-AIBP antibody, western blot with anti-his antibody", "experimental": "(§1) Co-immunoprecipitation assays for TLR4 binding. Pull down assay of eTLR4 and wtAIBP or mutAIBP in test tube was performed by mixing 1 μg of eTLR4 (Sino Biological) and AIBP in PBS containing 0.5% Triton X-100 and incubating for 1 hour at room temperature. Samples were precleared by adding Protein A/G Sepharose beads at room temperature for 30 min, followed by addition of 1 μg of BE-1 monoclonal anti-AIBP antibody and incubation for 2 hours. Protein A/G Sepharose beads were added and incubated for an additional one hour, followed by 5 washes with PBS containing 0.5% Triton X-100 and immunoblot of samples.\nA pulldown assay was performed using compounds as provided herein. Compounds 3, 7, 8 or 9 and other constructs described in FIGS. 13 and 14 were purified from either a baculovirus (BD Bioscience) or CHO (ExpiCHO, Expression Systems, ThermoFisher) cell expression system and incubated with TLR4 protein (Sino biological). Pull-down was performed with anti-AIBP antibody described. Bound TLR4 to AIBP was detected by western blot with an anti-his antibody (both modified AIBP and TLR4 have his-tag). Detailed experimental information is provided in example 1 as to pull down method."}, "[3]": {"target": "T1, recombinant TLR4 ectodomain, His-tagged …", "test": "pull-down with BE-1 anti-AIBP antibody, immunoblot", "experimental": "as §1\nFIG. 9: Identifies sequence motifs that contribute to AIBP binding to TLR4: FIG. 9. Identification of the domain in the AIBP molecule responsible for TLR4 binding. A, Human AIBP: signal peptide (aa 1-24), previously uncharacterized N-terminal domain (aa 25-51), and YjeF_N domain (aa 52-288). B, Flag-tagged deletion mutants of human AIBP were co-expressed in HEK293 cells with the Flag-tagged TLR4 ectodomain (eTLR4). Cell lysates were immunoprecipitated (IP) with an anti-TLR4 antibody and immunoblotted (IB) with an anti-Flag antibody. […] IP of eTLR4 and wtAIBP or mutAIBP in a test tube with an anti-AIBP antibody; blot and quantification from 3 independent experiments (D). […]"}, "[4]": {"target": "T2, human APOA1 (human, UniProt P02647 25-267)", "T2 construct": "also called ApoA-I", "T2 sequence (P02647 25-267 limits assumed)": "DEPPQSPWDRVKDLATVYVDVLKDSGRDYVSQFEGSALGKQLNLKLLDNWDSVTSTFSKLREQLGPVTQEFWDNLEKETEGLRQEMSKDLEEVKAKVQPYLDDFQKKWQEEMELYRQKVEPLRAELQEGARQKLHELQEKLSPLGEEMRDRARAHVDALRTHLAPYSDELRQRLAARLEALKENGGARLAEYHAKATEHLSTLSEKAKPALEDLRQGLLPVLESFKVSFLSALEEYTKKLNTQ", "test": "ELISA, AIBP-coated plates incubated with 5 µg/ml human APOA1", "experimental": "ELISA binding assays. To assess AIBP-TLR4 binding, 96-well plates were coated with 5 μg/ml of eTLR4, washed three times with PBS containing 0.05% Tween-20, blocked with PBS containing 1% BSA, and incubated with wtAIBP or mutAIBP, followed by 2 μg/ml of a biotinylated BE-1 anti-AIBP monoclonal antibody. To assess AIBP-APOA1 binding, plates were coated with BSA, wtAIBP or mutAIBP, washed, blocked, and incubated with 5 μg/ml of human APOA1 (a gift from Dmitri Sviridov, Baker Heart and Diabetes Institute, Melbourne, Australia), followed by a biotinylated anti-APOA1 antibody (Academy Bio-Medical Company, RRID:AB_1238781). In both assays, neutravidin-AP was added and incubated for 45 minutes at room temperature, followed by LumiPhos 530 (Lumigen) for 90 min, and luminescence was measured using a luminescence plate reader (BioTek, Winooski, Vermont).\nFIG. 9: Identifies sequence motifs that contribute to AIBP binding to TLR4: FIG. 9. Identification of the domain in the AIBP molecule responsible for TLR4 binding. A, Human AIBP: signal peptide (aa 1-24), previously uncharacterized N-terminal domain (aa 25-51), and YjeF_N domain (aa 52-288). […] IP of eTLR4 and wtAIBP or mutAIBP in a test tube with an anti-AIBP antibody; blot and quantification from 3 independent experiments (D). […]"}, "[5]": {"target": "T1, recombinant TLR4 ectodomain, His-tagged …", "test": "co-immunoprecipitation with recombinant ectodomain of TLR4; proteins from E. coli"}}, "data": [{"binder": "B1", "values": [{"measurement": "binding result", "setting": "[1]", "value": "no binding"}]}, {"binder": "B2", "values": [{"measurement": "binding result", "setting": "[2]", "value": "no binding"}]}, {"binder": "B3", "values": [{"measurement": "binding result", "setting": "[3]", "value": "no binding"}, {"measurement": "binding result", "setting": "[4]", "value": "binds"}]}, {"binder": "B4", "values": [{"measurement": "binding result", "setting": "[5]", "value": "no binding"}]}]}
